Patent publication US20190048080A1 (SHANGHAI KANDA BIOTECHNOLOGY, published 2019)

Biological target: T1, recombinant human CTLA-4-Fc fusion protein (R&D Systems) (human, UniProt P16410 37-162)
T1 construct: range 37-162; also called fusion protein CTLA-4/Fv; recombinant protein CTLA-4; not shown: IgG constant region (Fc) of the bought fusion protein
T1 sequence (looked up): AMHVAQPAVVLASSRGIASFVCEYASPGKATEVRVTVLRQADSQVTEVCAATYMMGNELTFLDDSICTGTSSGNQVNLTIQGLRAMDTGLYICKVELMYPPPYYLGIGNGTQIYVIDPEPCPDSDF
Experiment: phage display panning on coated CTLA-4/Fc, then ELISA of purified scFv on coated recombinant CTLA-4

B1: human anti-CTLA-4 single-chain variable region (scFv) antibody (scFv)
scFv: QVQLVQSGGGVVQPGRSLRLSCAASGFTFSSYGMHWVRQAPGKGLEWVAVIWYDGSRQYYADSVKGRFTISRDDSKNTMYLQMNSLRAEDTAVYYCARGGFWGAFDIWGQGTMVTVSSGSGGGGSDVVMTQSPGTLSLSPGEGATLSCRASQHVISSYLAWYQQKPGQAPRLLVYGASSRDTGVSDRFTGSGSGTDFTLTISRLEPEDSAVYFCQQYGTSPWTFGQGTKLEIKR
notes: also called anti-CTLA-4 scFv; CTLA-4scFv
binding result: binds
